Where “and” joins values, the source holds several entries; their conditions need not be identical. Identical values can stand only once.
Key:
[1] = system: GABA; assay: Ion channel panel (IonWorks Barracuda): GABA; type: cell-based; conditions: 100% = no change, <100% = inhibition
Procedure: (§1) This example describes a method for assaying ion channel activity in cells.
(§2) Peptides were screened in duplicate at final concentrations of 20 μM and 200 nM, as determined by amino acid analysis, and diluted into HEPES buffered physiological saline (HBPS). HEK293 or CHO cells from the American Type Culture Collection (ATCC) were transfected with the appropriate ion channel before use. HEK293 cells were grown in Dulbecco's Modified Eagle Medium/Nutrient Mixture F-12, and CHO cells were cultured in Ham's F-12 media. All cultures were supplemented with 10% fetal bovine serum, 100 U/ml penicillin G, 100 μg/ml streptomycin sulfate, and the appropriate selection antibiotics. Prior to use, cells were washed twice with Hank's Balanced Salt Solution, and treated with Accutase cell detachment solution (Sigma-Aldrich). Cells were then washed. Peptides and controls were incubated with cells for at least five minutes.
(§3) Percent inhibition was defined as: (1-(Ipeptide/Icontrol))×100%).
(§4) Percent values were calculated using the following formula: % activation=(IPeptide/Icontrol)×100%, where IPeptide is the current produced by co-application a peptide with agonist, and Icontrol refers to the current produced by stimulation in control. Control used for each ion channel is the reference compound matched to a particular channel, as illustrated in TABLE 10 below.

[2] = target: T1, Cav2.1 (Homo sapiens, UniProt O00555); assay: cell-based; conditions: 100% = no change, <100% = inhibition
T1 construct: host or cells: HEK293 or CHO
Procedure: as §1, §2, §3, §4

[3] = target: T2, Kv2.1 (Homo sapiens, UniProt Q14721); assay: cell-based; conditions: 100% = no change, <100% = inhibition
T2 construct: host or cells: HEK293 or CHO
Procedure: as §1, §2, §3, §4

[4] = target: T3, Cav2.2 (Homo sapiens, UniProt Q00975); assay: cell-based; conditions: 100% = no change, <100% = inhibition
T3 construct: host or cells: HEK293 or CHO
Procedure: as §1, §2, §3, §4

[5] = target: T4, TRPV1 (Homo sapiens, UniProt Q8NER1); assay: Ion channel panel (IonWorks Barracuda): TRPV1; type: cell-based
T4 construct: host or cells: HEK293 or CHO
Procedure: as §1, §2, §3, §4

[6] = target: T5, α4β2 (Homo sapiens, UniProt P17787+P43681); assay: Ion channel panel (IonWorks Barracuda): α4β2; type: cell-based
T5 construct: host or cells: HEK293 or CHO
Procedure: as §1, §2, §3, §4

[7] = target: T6, Kv1.2 (Homo sapiens, UniProt P16389); assay: cell-based; type: cell-based; conditions: 100% = no change, <100% = inhibition
T6 construct: host or cells: HEK293 or CHO
Procedure: as §1, §2, §3, §4

[8] = target: T7, Kv1.3 (Homo sapiens, UniProt P22001); assay: cell-based; type: cell-based; conditions: 100% = no change, <100% = inhibition
T7 construct: host or cells: HEK293 or CHO
Procedure: as §1, §2, §3, §4

[9] = target: T8, Kv1.1 (Homo sapiens, UniProt Q09470); assay: cell-based; type: cell-based; conditions: 100% = no change, <100% = inhibition
T8 construct: host or cells: HEK293 or CHO
Procedure: as §1, §2, §3, §4

[10] = target: T9, Nav1.7 (Homo sapiens, UniProt Q15858); assay: cell-based; type: cell-based; conditions: for Activity of Nav1.7 with peptide, expressed as a percentage of the reference compound: peptide at 0.2 μM; for Activity of Nav1.7 with peptide, expressed as a percentage of the reference compound / Activity of Nav1.7 with peptide (percentage of the reference compound): 100% = no change; for Activity of Nav1.7 with peptide (percentage of the reference compound): peptide at 20 μM
T9 construct: host or cells: HEK293 or CHO
Procedure: as §1
as §2, with “Peptides were screened in duplicate at final concentrations of 20 μM and 200 nM, as determined by amino acid analysis, and diluted into HEPES buffered physiological saline (HBPS).” left out
as §3, §4

[11] = target: hERG (Homo sapiens, UniProt Q12809); assay: in vitro; conditions: 100% = no change, <100% = inhibition
Procedure: as §1, §2, §3, §4

[12] = target: Nav1.5 (Homo sapiens, UniProt Q14524); assay: in vitro; conditions: 100% = no change; for Activity of Nav1.5 with peptide, expressed as a percentage of the reference compound: peptide at 0.2 μM; for Activity of Nav1.5 with peptide (percentage of the reference compound): peptide at 20 μM
Procedure: as §1, §2, §3, §4

[13] = target: T10, NR2A (Homo sapiens, UniProt Q12879); assay: Ion channel panel (IonWorks Barracuda): NR2A; type: cell-based; conditions: 100% = no change, <100% = inhibition
T10 construct: host or cells: HEK293 or CHO
Procedure: as §1, §2, §3, §4

[14] = target: T11, Kir2.1 (Homo sapiens, UniProt P63252); assay: Ion channel panel (IonWorks Barracuda): Kir2.1; type: cell-based
T11 construct: host or cells: HEK293 or CHO
Procedure: as §1, §2, §3, §4

[15] = target: T12, NR2B (Homo sapiens, UniProt Q13224); assay: Ion channel panel (IonWorks Barracuda): NR2B; type: cell-based; conditions: 100% = no change, <100% = inhibition
T12 construct: host or cells: HEK293 or CHO
Procedure: as §1, §2, §3, §4

[16] = target: T13, α3β4 (Homo sapiens, UniProt P30926+P32297); assay: Ion channel panel (IonWorks Barracuda): α3β4; type: cell-based; conditions: 100% = no change, <100% = inhibition
T13 construct: host or cells: HEK293 or CHO
Procedure: as §1, §2, §3, §4

[17] = target: T14, 5HT3a (Homo sapiens, UniProt P46098); assay: Ion channel panel (IonWorks Barracuda): 5HT3a; type: cell-based
T14 construct: host or cells: HEK293 or CHO
T14 sequence (P46098 whole entry, looked up): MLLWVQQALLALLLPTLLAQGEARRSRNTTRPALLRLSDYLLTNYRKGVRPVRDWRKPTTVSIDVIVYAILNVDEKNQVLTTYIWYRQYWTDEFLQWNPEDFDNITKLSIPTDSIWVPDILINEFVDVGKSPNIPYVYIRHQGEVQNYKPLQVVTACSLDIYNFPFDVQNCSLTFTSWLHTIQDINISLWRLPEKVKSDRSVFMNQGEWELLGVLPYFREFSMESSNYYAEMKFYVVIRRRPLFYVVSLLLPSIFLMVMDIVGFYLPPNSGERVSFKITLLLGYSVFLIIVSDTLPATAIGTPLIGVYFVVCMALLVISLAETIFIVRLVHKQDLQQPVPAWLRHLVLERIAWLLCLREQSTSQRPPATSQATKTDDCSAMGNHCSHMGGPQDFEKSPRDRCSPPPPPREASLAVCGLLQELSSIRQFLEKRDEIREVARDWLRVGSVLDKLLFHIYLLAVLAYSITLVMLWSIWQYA
Procedure: as §1, §2, §3, §4

[18] = target: T15, TRPA1 (Homo sapiens, UniProt O75762); assay: Ion channel panel (IonWorks Barracuda): TRPA1; type: cell-based; conditions: 100% = no change, <100% = inhibition
T15 construct: host or cells: HEK293 or CHO
Procedure: as §1, §2, §3, §4

[19] = peptide at 0.2 μM, 100% = no change, <100% = inhibition
[20] = peptide at 20 μM, 100% = no change, <100% = inhibition
[21] = first of two Nav1.7 columns (probably TP1)
[22] = second of two Nav1.7 columns (probably TP2)
[23] = first of two Nav1.5 columns (probably TP1)
[24] = second of two Nav1.5 columns (probably TP2)

T4 sequence (Q8NER1 whole entry): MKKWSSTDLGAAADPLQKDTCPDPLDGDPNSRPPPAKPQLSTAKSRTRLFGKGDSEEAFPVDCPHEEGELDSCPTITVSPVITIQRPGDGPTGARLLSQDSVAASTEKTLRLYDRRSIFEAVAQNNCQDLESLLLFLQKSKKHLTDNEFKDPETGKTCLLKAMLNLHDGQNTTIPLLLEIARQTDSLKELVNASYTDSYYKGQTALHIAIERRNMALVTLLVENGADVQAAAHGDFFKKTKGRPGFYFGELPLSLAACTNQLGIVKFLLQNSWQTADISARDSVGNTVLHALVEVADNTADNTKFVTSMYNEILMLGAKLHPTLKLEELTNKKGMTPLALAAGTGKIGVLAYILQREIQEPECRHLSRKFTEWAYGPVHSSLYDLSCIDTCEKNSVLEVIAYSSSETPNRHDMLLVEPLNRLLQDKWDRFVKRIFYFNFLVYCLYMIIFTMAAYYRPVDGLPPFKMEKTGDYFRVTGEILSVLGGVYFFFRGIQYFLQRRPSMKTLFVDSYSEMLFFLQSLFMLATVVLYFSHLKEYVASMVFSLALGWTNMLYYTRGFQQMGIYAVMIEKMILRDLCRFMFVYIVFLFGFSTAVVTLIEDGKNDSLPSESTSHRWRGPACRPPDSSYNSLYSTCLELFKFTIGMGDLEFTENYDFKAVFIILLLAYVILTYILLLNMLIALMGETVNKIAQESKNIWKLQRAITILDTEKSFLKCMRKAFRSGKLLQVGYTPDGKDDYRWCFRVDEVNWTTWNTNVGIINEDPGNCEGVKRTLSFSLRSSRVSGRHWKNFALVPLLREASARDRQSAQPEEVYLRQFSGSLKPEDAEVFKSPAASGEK
T11 sequence (P63252 whole entry): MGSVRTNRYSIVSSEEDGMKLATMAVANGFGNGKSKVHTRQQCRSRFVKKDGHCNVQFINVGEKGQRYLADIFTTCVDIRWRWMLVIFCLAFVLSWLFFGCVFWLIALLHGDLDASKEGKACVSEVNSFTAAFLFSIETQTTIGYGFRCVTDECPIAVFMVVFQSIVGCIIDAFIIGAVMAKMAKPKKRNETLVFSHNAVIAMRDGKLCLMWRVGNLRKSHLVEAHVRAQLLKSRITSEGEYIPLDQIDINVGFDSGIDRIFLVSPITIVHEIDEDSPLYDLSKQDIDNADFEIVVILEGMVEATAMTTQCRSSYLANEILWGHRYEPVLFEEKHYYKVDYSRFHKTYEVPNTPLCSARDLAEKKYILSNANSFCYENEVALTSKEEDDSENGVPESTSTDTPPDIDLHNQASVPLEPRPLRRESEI
T9 sequence (Q15858 whole entry): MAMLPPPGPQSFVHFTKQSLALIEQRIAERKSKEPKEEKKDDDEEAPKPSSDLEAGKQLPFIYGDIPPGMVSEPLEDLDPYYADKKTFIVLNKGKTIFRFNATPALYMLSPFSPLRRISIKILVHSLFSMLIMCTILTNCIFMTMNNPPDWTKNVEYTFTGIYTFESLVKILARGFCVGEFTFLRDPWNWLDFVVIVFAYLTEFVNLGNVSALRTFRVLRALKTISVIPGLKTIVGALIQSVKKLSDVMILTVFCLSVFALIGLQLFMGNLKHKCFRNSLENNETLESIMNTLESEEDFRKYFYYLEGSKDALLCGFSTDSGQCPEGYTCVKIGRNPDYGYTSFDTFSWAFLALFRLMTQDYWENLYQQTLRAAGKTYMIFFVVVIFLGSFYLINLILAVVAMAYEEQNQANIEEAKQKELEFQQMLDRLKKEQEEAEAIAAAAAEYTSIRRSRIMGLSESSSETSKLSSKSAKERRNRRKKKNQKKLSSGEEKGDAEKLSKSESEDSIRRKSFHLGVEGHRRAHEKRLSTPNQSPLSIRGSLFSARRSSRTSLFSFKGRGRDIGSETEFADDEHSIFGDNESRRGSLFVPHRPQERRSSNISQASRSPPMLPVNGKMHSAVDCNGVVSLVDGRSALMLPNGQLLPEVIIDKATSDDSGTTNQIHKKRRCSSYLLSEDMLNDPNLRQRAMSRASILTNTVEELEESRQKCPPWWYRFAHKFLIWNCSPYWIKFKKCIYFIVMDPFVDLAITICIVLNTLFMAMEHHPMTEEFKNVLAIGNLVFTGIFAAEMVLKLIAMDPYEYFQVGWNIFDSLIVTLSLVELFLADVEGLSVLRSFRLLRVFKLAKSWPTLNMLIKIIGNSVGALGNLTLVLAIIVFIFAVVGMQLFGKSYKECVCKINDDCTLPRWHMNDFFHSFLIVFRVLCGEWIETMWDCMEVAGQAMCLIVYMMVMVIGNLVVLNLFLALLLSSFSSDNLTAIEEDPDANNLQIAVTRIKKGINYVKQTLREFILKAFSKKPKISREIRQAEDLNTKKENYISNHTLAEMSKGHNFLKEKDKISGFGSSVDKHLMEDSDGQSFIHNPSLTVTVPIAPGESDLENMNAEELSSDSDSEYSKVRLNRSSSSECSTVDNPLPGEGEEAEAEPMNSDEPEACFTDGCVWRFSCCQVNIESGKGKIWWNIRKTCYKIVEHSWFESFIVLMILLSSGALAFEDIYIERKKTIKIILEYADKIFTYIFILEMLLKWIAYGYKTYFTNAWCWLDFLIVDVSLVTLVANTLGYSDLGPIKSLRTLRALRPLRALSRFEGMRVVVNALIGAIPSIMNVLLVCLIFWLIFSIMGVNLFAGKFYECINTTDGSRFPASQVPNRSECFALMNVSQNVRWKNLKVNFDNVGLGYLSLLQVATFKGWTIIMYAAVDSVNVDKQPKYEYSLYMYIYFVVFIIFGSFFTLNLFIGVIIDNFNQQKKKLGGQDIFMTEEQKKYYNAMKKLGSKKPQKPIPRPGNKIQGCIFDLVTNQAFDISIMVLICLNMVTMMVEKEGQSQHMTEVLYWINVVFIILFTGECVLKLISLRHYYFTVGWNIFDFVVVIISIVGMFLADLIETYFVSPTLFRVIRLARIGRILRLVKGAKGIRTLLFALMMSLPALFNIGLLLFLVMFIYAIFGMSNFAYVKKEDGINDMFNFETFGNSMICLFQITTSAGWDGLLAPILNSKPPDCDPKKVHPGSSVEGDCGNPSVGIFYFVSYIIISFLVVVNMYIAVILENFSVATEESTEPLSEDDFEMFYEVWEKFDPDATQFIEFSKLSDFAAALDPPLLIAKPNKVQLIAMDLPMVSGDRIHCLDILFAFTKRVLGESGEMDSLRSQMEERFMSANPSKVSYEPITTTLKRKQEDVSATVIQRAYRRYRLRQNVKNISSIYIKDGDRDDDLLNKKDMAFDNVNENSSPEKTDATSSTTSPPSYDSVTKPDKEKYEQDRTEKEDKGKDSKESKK
T5 sequence (P43681 29-627): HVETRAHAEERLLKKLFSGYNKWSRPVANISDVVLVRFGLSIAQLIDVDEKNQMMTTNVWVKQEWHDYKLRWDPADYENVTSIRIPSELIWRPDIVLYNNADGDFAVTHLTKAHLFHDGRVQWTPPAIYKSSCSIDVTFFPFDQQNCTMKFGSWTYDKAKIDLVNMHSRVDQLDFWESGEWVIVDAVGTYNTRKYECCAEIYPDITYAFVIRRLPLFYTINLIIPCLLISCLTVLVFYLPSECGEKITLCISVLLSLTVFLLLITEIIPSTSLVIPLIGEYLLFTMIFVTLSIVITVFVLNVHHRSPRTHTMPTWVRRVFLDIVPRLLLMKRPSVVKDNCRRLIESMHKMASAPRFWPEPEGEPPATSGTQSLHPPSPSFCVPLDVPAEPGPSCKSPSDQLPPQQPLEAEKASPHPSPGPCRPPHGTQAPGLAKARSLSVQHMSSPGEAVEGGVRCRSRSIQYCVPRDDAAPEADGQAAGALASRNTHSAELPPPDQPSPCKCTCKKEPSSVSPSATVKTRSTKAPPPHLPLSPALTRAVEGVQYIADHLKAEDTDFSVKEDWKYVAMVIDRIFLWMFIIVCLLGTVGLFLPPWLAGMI
T5 sequence (P17787 26-502): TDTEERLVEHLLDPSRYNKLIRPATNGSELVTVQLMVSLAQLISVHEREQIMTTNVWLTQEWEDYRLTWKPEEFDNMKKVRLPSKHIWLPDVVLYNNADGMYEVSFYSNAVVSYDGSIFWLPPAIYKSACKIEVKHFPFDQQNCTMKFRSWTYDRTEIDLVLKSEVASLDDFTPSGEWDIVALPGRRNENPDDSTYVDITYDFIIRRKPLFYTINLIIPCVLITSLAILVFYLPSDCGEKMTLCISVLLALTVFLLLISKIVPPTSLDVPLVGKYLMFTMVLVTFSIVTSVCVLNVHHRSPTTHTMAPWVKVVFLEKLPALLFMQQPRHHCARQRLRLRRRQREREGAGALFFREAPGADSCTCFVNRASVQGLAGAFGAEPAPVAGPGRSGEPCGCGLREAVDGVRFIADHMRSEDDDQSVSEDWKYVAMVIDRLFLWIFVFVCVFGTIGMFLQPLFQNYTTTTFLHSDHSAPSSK
T7 sequence (P22001 whole entry): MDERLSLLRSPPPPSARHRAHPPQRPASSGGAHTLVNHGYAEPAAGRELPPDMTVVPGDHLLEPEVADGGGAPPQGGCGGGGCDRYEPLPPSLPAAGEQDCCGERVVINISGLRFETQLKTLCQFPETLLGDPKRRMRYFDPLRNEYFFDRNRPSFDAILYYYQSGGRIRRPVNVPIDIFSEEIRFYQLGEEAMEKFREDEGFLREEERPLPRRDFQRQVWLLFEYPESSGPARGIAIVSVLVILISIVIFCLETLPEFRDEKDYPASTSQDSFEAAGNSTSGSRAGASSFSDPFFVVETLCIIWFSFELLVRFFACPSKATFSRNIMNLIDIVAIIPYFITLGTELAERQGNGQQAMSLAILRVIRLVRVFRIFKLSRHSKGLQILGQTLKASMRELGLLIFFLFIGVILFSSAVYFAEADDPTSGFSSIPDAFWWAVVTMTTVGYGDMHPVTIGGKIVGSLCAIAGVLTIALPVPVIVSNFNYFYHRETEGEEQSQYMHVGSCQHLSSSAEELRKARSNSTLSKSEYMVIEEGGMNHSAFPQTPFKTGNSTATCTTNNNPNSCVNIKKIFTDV

## 2 (GSEVIRCSGSKQCYGPCKQQTGCTNSKCMNKVCKCYGCG) [compound 2]
[1]; peptide at 0.2 μM
  Activity of GABA with peptide, expressed as a percentage of the reference compound: 104%
[1]; peptide at 20 μM
  Activity of GABA with peptide (percentage of the reference compound): 97%
[2]; peptide at 0.2 μM
  Activity of Cav2.1 with peptide, expressed as a percentage of the reference compound: 103%
[2]; peptide at 20 μM
  Activity of Cav2.1 with peptide (percentage of the reference compound): 108%
[3]; peptide at 0.2 μM
  Activity of Kv2.1 with peptide, expressed as a percentage of the reference compound: 80%
[3]; peptide at 20 μM
  Activity of Kv2.1 with peptide (percentage of the reference compound): 87%
[4]; peptide at 0.2 μM
  Activity of Cav2.2 with peptide, expressed as a percentage of the reference compound: 104%
[4]; peptide at 20 μM
  Activity of Cav2.2 with peptide (percentage of the reference compound): 104%
[5]; [19]
  Activity of TRPV1 with peptide, expressed as a percentage of the reference compound: 95%
[5]; [20]
  Activity of TRPV1 with peptide (percentage of the reference compound): 81%
[6]; [19]
  Activity of a4b2 with peptide, expressed as a percentage of the reference compound: 95%
[6]; [20]
  Activity of a4b2 with peptide (percentage of the reference compound): 87%
[7]; peptide at 0.2 μM
  Activity of Kv1.2 with peptide, expressed as a percentage of the reference compound: 34%
[7]; peptide at 20 μM
  Activity of Kv1.2 with peptide (percentage of the reference compound): 39%
[8]; peptide at 0.2 μM
  Activity of Kv1.3 with peptide, expressed as a percentage of the reference compound: 8%
[8]; peptide at 20 μM
  Activity of Kv1.3 with peptide (percentage of the reference compound): 1%
[9]; peptide at 0.2 μM
  Activity of Kv1.1 with peptide, expressed as a percentage of the reference compound: 114%
[9]; peptide at 20 μM
  Activity of Kv1.1 with peptide (percentage of the reference compound): 68%
[10]; [21]
  Activity of Nav1.7 with peptide, expressed as a percentage of the reference compound: 89%
  Activity of Nav1.7 with peptide (percentage of the reference compound): 61%
[10]; [22]
  Activity of Nav1.7 with peptide, expressed as a percentage of the reference compound: 74%
  Activity of Nav1.7 with peptide (percentage of the reference compound): 91%
[11]; peptide at 0.2 μM
  Activity of hERG with peptide, expressed as a percentage of the reference compound: 97%
[11]; peptide at 20 μM
  Activity of hERG with peptide (percentage of the reference compound): 76%
[12]; [23]
  Activity of Nav1.5 with peptide, expressed as a percentage of the reference compound: 95%
  Activity of Nav1.5 with peptide (percentage of the reference compound): 102%
[12]; [24]
  Activity of Nav1.5 with peptide, expressed as a percentage of the reference compound: 93%
  Activity of Nav1.5 with peptide (percentage of the reference compound): 101%
[13]; peptide at 0.2 μM
  Activity of NR2A with peptide, expressed as a percentage of the reference compound: 102%
[13]; peptide at 20 μM
  Activity of NR2A with peptide (percentage of the reference compound): 95%
[14]; [19]
  Activity of Kir2.1 with peptide, expressed as a percentage of the reference compound: 101%
[14]; [20]
  Activity of Kir2.1 with peptide (percentage of the reference compound): 89%
[15]; peptide at 0.2 μM
  Activity of NR2B with peptide, expressed as a percentage of the reference compound: 118%
[15]; peptide at 20 μM
  Activity of NR2B with peptide (percentage of the reference compound): 72%
[16]; peptide at 0.2 μM
  Activity of a3b4 with peptide, expressed as a percentage of the reference compound: 85%
[16]; peptide at 20 μM
  Activity of a3b4 with peptide (percentage of the reference compound): 88%
[17]
  Activity of 5HT3a with peptide (percentage of the reference compound): 88%
  Activity of 5HT3a with peptide, expressed as a percentage of the reference compound: 92%
[18]; peptide at 0.2 μM
  Activity of TRPA1 with peptide, expressed as a percentage of the reference compound: 106%
[18]; peptide at 20 μM
  Activity of TRPA1 with peptide (percentage of the reference compound): 92%

## [Ba+2].[Cl-].[Cl-] [BaCl2, reference compound]
[14]; Kir2.1, read-out: IC50 of receptor/channel inhibition with reference compound
  IC50: 5.25 µM

## Oc1cc2c(cc1O)CN(C(=S)NCCc1ccc(Cl)cc1)CCC2 [Capsazepine, reference compound]
[5]
  IC50: 0.09 µM

## CCN(CC)CC(=O)Nc1c(C)cccc1C [Lidocaine, reference compound]
[10]; IC50 of receptor/channel inhibition with reference compound
  IC50: 465 µM and 285 µM

## CNC1(C)C2CCC(C2)C1(C)C (centres unmarked) [Mecamylamine, reference compound]
[6]; α4β2, read-out: IC50 of receptor/channel inhibition with reference compound
  IC50: 1.14 µM

— patent US20200262877A1, “ION CHANNEL-BINDING PEPTIDES AND METHODS OF USE THEREOF” (priority 2017, published 2020)
